Assay results from EP2305804B1.
“And” between values parts separate entries of the source, which are not always exact repeats. Equal entries are not always repeated.

Biological target: Rabbit GH receptor, full length, stably expressed on murine FDC-P1 cells (GH-R4 cell line) (rabbit) (UniProt P19941)
Assay: cell-based or functional assay

UniProt P19941, sequence (P19941 19-638): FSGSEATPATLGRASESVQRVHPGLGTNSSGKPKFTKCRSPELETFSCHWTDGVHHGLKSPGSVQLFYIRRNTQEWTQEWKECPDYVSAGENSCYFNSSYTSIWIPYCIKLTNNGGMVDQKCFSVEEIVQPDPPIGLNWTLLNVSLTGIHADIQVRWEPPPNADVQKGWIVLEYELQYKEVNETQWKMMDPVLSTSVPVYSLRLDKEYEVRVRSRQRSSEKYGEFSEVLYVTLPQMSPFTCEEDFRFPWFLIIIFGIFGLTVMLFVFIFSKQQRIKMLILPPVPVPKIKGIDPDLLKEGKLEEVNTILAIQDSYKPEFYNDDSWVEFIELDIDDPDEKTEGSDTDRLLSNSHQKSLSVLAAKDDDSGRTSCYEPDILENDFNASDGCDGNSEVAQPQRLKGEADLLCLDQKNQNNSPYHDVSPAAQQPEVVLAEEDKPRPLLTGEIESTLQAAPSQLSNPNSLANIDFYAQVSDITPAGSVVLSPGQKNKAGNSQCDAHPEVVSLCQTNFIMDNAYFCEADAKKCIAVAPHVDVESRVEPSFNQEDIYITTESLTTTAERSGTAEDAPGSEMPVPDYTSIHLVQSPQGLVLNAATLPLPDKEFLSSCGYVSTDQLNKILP

| Substance | EC50, individual experiment, MTS cell proliferation assay, GH-R4 cells | Mean EC50, MTS cell proliferation assay, GH-R4 cells | Mean EC50 in molar units, MTS cell proliferation assay, GH-R4 cells | also measured |
| --- | --- | --- | --- | --- |
| PEG-S144C, monoPEGylated hGH cysteine mutein S144C (5 kDa maleimide-PEG) (from UniProt P01241 27-217) (ligand) | 40 ng/mL and 45 ng/mL | 43 ng/mL | 2 nM | – |
| PEG-T3C, monoPEGylated hGH cysteine mutein T3C (5 kDa maleimide-PEG) (from UniProt P01241 27-217) (ligand) | – | 1.6 ng/mL | 0.07 nM | – |
| Wild-type recombinant human growth hormone (rhGH), secreted to the E. coli periplasm with the stII signal sequence (from UniProt P01241 27-217) (ligand) | 0.8 ng/mL and 1.1 ng/mL | 0.8 ng/mL | – | – |
| hGH cysteine mutein S144C (from UniProt P01241 27-217) (ligand) | – | 1.6 ng/mL | – | – |
| hGH cysteine mutein T3C, disulfide-linked homodimer (from UniProt P01241 27-217) (ligand) | – | – | – | Mean EC50, MTS cell proliferation assay, GH-R4 cells (T3C dimer): 1.4 ng/mL |
| hGH cysteine mutein T148C (from UniProt P01241 27-217) (ligand) | – | – | – | EC50, individual experiment, MTS cell proliferation assay, GH-R4 cells (T148C-lotA): 0.4 ng/mL and 0.5 ng/mL; EC50, individual experiment, MTS cell proliferation assay, GH-R4 cells (T148C-lotB): 1.5 ng/mL and 1.9 ng/mL and 3.1 ng/mL; Mean EC50, MTS cell proliferation assay, GH-R4 cells (T148C-lotA): 0.5 ng/mL; Mean EC50, MTS cell proliferation assay, GH-R4 cells (T148C-lotB): 2.5 ng/mL |
